Test results taken from patent US20210386788A1, “ER TUNABLE PROTEIN REGULATION” (Obsidian Therapeutics, Inc., priority 2018, published 2021).

Legend:
Assay type in all cases: cell-based, human
primary T cells = test: CD19 CAR expression on lentivirus transduced primary T cells (flow cytometry with CD19-Fc); conditions: for CAR expression, % positive: day 7 of T cell expansion
Procedure: (§1) Primary T cells were activated with CD3/CD28 Dynabeads at 3:1 Bead: Cell ratio overnight, then transduced with OT-001792 lentivirus. On day 7 of the T cell expansion, CAR expression was measured by flow cytometry with CD19-Fc on cells treated overnight in the presence (34% positive) or absence (0.6% positive) of 1 μM Bazedoxifene. After the T cells had expanded for 10 days, they were mixed with CD19-expressing Nalm6 target cells at ratios of 10:1 and 2.5:1 total T cells:Nalm6 cells and cultured for 3 days.
Primary T cells were activated with CD3/CD28 Dynabeads at 3:1 Bead:Cell ratio overnight, then transduced with lentiviruses derived from the indicated constructs. On day 7 or day 9 (as indicated) of the T cell expansion, CAR expression was measured by flow cytometry with CD19-Fc on cells incubated for 24 hours with 1 μM Bazedoxifene or 1 μM Raloxifene or DMSO. […] At day 9 the basal percentage of CAR positive cells for the same constructs was even lower at approximately 20% i.e. in the absence of ligand and about 32-45% in the presence of either ligand. […] This was true at both day 7 and day 9.
Human donor T cells were thawed and activated overnight in the presence of CD3/CD28 Dynabeads at 3:1 bead:cell ratio, then transduced with lentivirus related to OT-002158, or OT-001786. Cells were expanded over the course of 10 days, with fresh media added to maintain cells at around 0.5×10^6 cells/mL. On day 9, an aliquot of cells was removed, and treated with 1 μM Bazedoxifene overnight or DMSO vehicle control, then stained with 10 μg/mL CD19-Fc. Histograms showing CAR expression from a Live Singlet cell gate were plotted.
Human donor T cells were thawed and activated overnight in the presence of CD3/CD28 Dynabeads at 3:1 bead:cell ratio, then transduced with lentivirus from the constructs. Cells were expanded over the course of 10 days, and fresh media was added to maintain cells around 0.5×10^6 cells/ml. On day 9, an aliquot of cells were removed, treated with 1 μM Bazedoxifene overnight, then stained with 10 μg/mL CD19-Fc. Histograms showing CAR expression from a Live Singlet cell gate were plotted. The data are shown in Table 19 and Table 20 where data are presented as % CAR positive cells, where SR indicates stabilization ration.
T cells were transduced with OT-00179, OT-002158, OT-001407 or empty vector and expanded as described herein, frozen on day 10. To confirm the expression and function of this large scale expansion for in vivo use, cells were thawed and incubated overnight in the presence of CD3/28 beads (1:1 bead:cell ratio) and with or without 1 μM Bazedoxifene. FACS staining with 1 μg/mL CD19-Fc was performed to measure the surface expression of CD19-CAR. The data are provided in Table 21 as the percentage CAR positive cells.

Nalm6 target cells [1] = test: Interferon gamma in T cell/Nalm6 co-culture supernatants (MSD); conditions: co-culture supernatant at 42 hours
Procedure: (§2) To measure Interferon gamma production, T cells transduced with the constructs OT-00179, OT-002158, OT-001407 or empty vector were thawed and co-cultured with Nalm6 target cells (stably expressing NucRed®) at different ratios of transduced T cells (herein referred to as the Effector) and Nalm 6 cells (herein referred to as the Target). Target cell viability was determined by measuring cellular fluorescence over time using the Incucyte instrument. Data presented in Table 22 are expressed as Nalm6 cell area at representative time points (0, 24, and 42 hour (hr)). The lower the numerical value of the Nalm6 area, the higher the cytotoxicity effected by the Effector cells.
Cell culture supernatants were collected from the T cell/Nalm6 cytotoxicity assay co-cultures at 42 hours. Interferon gamma was measured by MSD and is described in Table 23.

Nalm6 target cells [2] = test: Nalm6 target cell killing by CAR T cells (Incucyte)
Procedure: as §1, §2

B1: OT-001792: CD8α leader; Linker (RS); ER (L384M, M421G, G521R, Y537S); Furin cleavage site; CD19 CAR; SEQ ID NO. 406 (protein)
chain: MALPVTALLLPLALLLHAARPRSSLALSLTADQMVSALLDAEPPILYSEYDPTRPFSEASMMGLLTNLADRELVHMINWAKRVPGFVDLTLHDQVHLLECAWMEILMIGLVWRSMEHPGKLLFAPNLLLDRNQGKCVEGGVEIFDMLLATSSRFRMMNLQGEEFVCLKSIILLNSGVYTFLSSTLKSLEEKDHIHRVLDKITDTLIHLMAKAGLTLQQQHQRLAQLLLILSHIRHMSNKRMEHLYSMKCKNVVPLSDLLLEMLDAHRLGTGAEDPRPSRKRRSLGDVGEIVMTQSPATLSLSPGERATLSCRASQDISKYLNWYQQKPGQAPRLLIYHTSRLHSGIPARFSGSGSGTDYTLTISSLQPEDFAVYFCQQGNTLPYTFGQGTKLEIKGGGGSGGGGSGGGGSQVQLQESGPGLVKPSETLSLTCTVSGVSLPDYGVSWIRQPPGKGLEWIGVIWGSETTYYSSSLKSRVTISKDNSKNQVSLKLSSVTAADTAVYYCAKHYYYGGSYAMDYWGQGTLVTVSSTTTPAPRPPTPAPTIASQPLSLRPEACRPAAGGAVHTRGLDFACDIYIWAPLAGTCGVLLLSLVITLYCKRGRKKLLYIFKQPFMRPVQTTQEEDGCSCRFPEEEEGGCELRVKFSRSADAPAYKQGQNQLYNELNLGRREEYDVLDKRRGRDPEMGGKPRRKNPQEGLYNELQKDKMAEAYSEIGMKGERRRGKGHDGLYQGLSTATKDTYDALHMQALPPR
Primary T cells; 1 μM Bazedoxifene or Raloxifene versus DMSO, day 7 or day 9
  ligand dependent regulation of CAR expression (in words): did not show any ligand dependent regulation of CAR expression
Primary T cells; Table 21, thawed cells, overnight with CD3/28 beads, 1 μM Bazedoxifene, 1 μg/mL CD19-Fc
  % CAR positive cells, Bazedoxifene: 39.6%
Primary T cells; Table 21, thawed cells, overnight with CD3/28 beads, without Bazedoxifene, 1 μg/mL CD19-Fc
  % CAR positive cells, Vehicle: 0.39%
Primary T cells; overnight in the absence of Bazedoxifene
  CAR expression, % positive: 0.6%
Primary T cells; overnight in the presence of 1 μM Bazedoxifene
  CAR expression, % positive: 34%
Nalm6 target cells [1]; 1 μM Bazedoxifene
  IFN gamma levels, 1 μM Bazedoxifene: 7079.60 pg/mL
Nalm6 target cells [1]; vehicle
  IFN gamma levels, Vehicle: 91.09 pg/mL
Nalm6 target cells [2]; 0 hr, Effector:Target 0.3:1, + 1 μM Bazedoxifene
  Nalm 6 area, total target area: 57617.98
Nalm6 target cells [2]; 0 hr, Effector:Target 0.3:1, no ligand
  Nalm 6 area, total target area: 71711.59
Nalm6 target cells [2]; 0 hr, Effector:Target 1:1, + 1 μM Bazedoxifene
  Nalm 6 area, total target area: 67768.82
Nalm6 target cells [2]; 0 hr, Effector:Target 1:1, no ligand
  Nalm 6 area, total target area: 62673.31
Nalm6 target cells [2]; 0 hr, Effector:Target 3:1, + 1 μM Bazedoxifene
  Nalm 6 area, total target area: 54788.54
Nalm6 target cells [2]; 0 hr, Effector:Target 3:1, no ligand
  Nalm 6 area, total target area: 60708.63
Nalm6 target cells [2]; 0 hr, Effector:Target 10:1, + 1 μM Bazedoxifene
  Nalm 6 area, total target area: 55572.92
Nalm6 target cells [2]; 0 hr, Effector:Target 10:1, no ligand
  Nalm 6 area, total target area: 57172.20
Nalm6 target cells [2]; 24 hr, Effector:Target 0.3:1, + 1 μM Bazedoxifene
  Nalm 6 area, total target area: 94217.60
Nalm6 target cells [2]; 24 hr, Effector:Target 0.3:1, no ligand
  Nalm 6 area, total target area: 123175.80
Nalm6 target cells [2]; 24 hr, Effector:Target 1:1, + 1 μM Bazedoxifene
  Nalm 6 area, total target area: 103535.70
Nalm6 target cells [2]; 24 hr, Effector:Target 1:1, no ligand
  Nalm 6 area, total target area: 104433.20
Nalm6 target cells [2]; 24 hr, Effector:Target 3:1, + 1 μM Bazedoxifene
  Nalm 6 area, total target area: 67794.87
Nalm6 target cells [2]; 24 hr, Effector:Target 3:1, no ligand
  Nalm 6 area, total target area: 105474.34
Nalm6 target cells [2]; 24 hr, Effector:Target 10:1, + 1 μM Bazedoxifene
  Nalm 6 area, total target area: 40606.37
Nalm6 target cells [2]; 24 hr, Effector:Target 10:1, no ligand
  Nalm 6 area, total target area: 93991.37
Nalm6 target cells [2]; 42 hr, Effector:Target 0.3:1, + 1 μM Bazedoxifene
  Nalm 6 area, total target area: 143903.95
Nalm6 target cells [2]; 42 hr, Effector:Target 0.3:1, no ligand
  Nalm 6 area, total target area: 197082.75
Nalm6 target cells [2]; 42 hr, Effector:Target 1:1, + 1 μM Bazedoxifene
  Nalm 6 area, total target area: 133539.50
Nalm6 target cells [2]; 42 hr, Effector:Target 1:1, no ligand
  Nalm 6 area, total target area: 171919.20
Nalm6 target cells [2]; 42 hr, Effector:Target 3:1, + 1 μM Bazedoxifene
  Nalm 6 area, total target area: 58548.97
Nalm6 target cells [2]; 42 hr, Effector:Target 3:1, no ligand
  Nalm 6 area, total target area: 180465.55
Nalm6 target cells [2]; 42 hr, Effector:Target 10:1, + 1 μM Bazedoxifene
  Nalm 6 area, total target area: 25302.71
Nalm6 target cells [2]; 42 hr, Effector:Target 10:1, no ligand
  Nalm 6 area, total target area: 156073.75
Nalm6 target cells [2]; T cells:Nalm6 10:1 and 2.5:1, 3 days, with or without 1 μM Bazedoxifene
  CD19-CAR mediated target cell killing: observed specifically in the presence of 1 μM Bazedoxifene
